Reference: IntAct's records for PubMed 31515488

B1: Complex I assembly factor TIMMDC1, mitochondrial (Homo sapiens), Q9NPL8 (parent)
chain: MEVPPPAPRSFLCRALCLFPRVFAAEAVTADSEVLEERQKRLPYVPEPYYPESGWDRLRELFGKDEQQRISKDLANICKTAATAGIIGWVYGGIPAFIHAKQQYIEQSQAEIYHNRFDAVQSAHRAATRGFIRYGWRWGWRTAVFVTIFNTVNTSLNVYRNKDALSHFVIAGAVTGSLFRINVGLRGLVAGGIIGALLGTPVGGLLMAFQKYSGETVQERKQKDRKALHELKLEEWKGRLQVTEHLPEKIESSLQEDEPENDAKKIEALLNLPRNPSVIDKQDKD
partner: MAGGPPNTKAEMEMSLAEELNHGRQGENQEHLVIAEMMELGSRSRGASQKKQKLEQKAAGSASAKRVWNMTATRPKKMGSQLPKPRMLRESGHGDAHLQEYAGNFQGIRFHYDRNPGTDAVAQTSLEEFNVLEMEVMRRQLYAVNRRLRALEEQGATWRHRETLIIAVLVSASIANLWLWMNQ
B2: EF-hand calcium-binding domain-containing protein 4B (Homo sapiens), Q9BSW2 (parent)
chain: MAAPDGRVVSRPQRLGQGSGQGPKGSGACLHPLDSLEQKETQEQTSGQLVMLRKAQEFFQTCDAEGKGFIARKDMQRLHKELPLSLEELEDVFDALDADGNGYLTPQEFTTGFSHFFFSQNNPSQEDAGEQVAQRHEEKVYLSRGDEDLGDMGEDEEAQFRMLMDRLGAQKVLEDESDVKQLWLQLKKEEPHLLSNFEDFLTRIISQLQEAHEEKNELECALKRKIAAYDEEIQHLYEEMEQQIKSEKEQFLLKDTERFQARSQELEQKLLCKEQELEQLTQKQKRLEGQCTALHHDKHETKAENTKLKLTNQELARELERTSWELQDAQQQLESLQQEACKLHQEKEMEVYRVTESLQREKAGLLKQLDFLRERNKHLRDERDICFQKNKAAKANTAASRASWKKRSGSVIGKYVDSRGILRSQSEEEEEVFGIPRRSSLGLSGYPLTEEEPGTGEPGPGGPYPRPLRRIISVEEDPLPQLLDGGFEQPLSKCSEEEEVSDQGVQGQIPEAPPLKLTPTSPRGQPVGKEALCKEESSPSAPDRLFKIVFVGNSAVGKTSFLRRFCEDRFSPGMAATVGIDYRVKTLNVDNSQVALQLWDTAGQERYRCITQQFFRKADGVIVMYDLTDKQSFLSVRRWLSSVEEAVGDRVPVLLLGNKLDNEKEREVPRGLGEQLATENNLIFYECSAYSGHNTKESLLHLARFLKEQEDTVREDTIQVGHPAKKKSCCG
partner: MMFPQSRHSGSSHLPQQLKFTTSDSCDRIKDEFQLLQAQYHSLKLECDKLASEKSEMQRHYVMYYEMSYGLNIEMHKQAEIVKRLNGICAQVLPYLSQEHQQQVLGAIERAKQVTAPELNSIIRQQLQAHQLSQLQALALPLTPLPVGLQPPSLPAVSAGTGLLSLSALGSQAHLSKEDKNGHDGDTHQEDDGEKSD
B3: Zinc finger protein Aiolos (Homo sapiens), Q9UKT9 (parent)
chain: MEDIQTNAELKSTQEQSVPAESAAVLNDYSLTKSHEMENVDSGEGPANEDEDIGDDSMKVKDEYSERDENVLKSEPMGNAEEPEIPYSYSREYNEYENIKLERHVVSFDSSRPTSGKMNCDVCGLSCISFNVLMVHKRSHTGERPFQCNQCGASFTQKGNLLRHIKLHTGEKPFKCHLCNYACQRRDALTGHLRTHSVEKPYKCEFCGRSYKQRSSLEEHKERCRTFLQSTDPGDTASAEARHIKAEMGSERALVLDRLASNVAKRKSSMPQKFIGEKRHCFDVNYNSSYMYEKESELIQTRMMDQAINNAISYLGAEALRPLVQTPPAPTSEMVPVISSMYPIALTRAEMSNGAPQELEKKSIHLPEKSVPSERGLSPNNSGHDSTDTDSNHEERQNHIYQQNHMVLSRARNGMPLLKEVPRSYELLKPPPICPRDSVKVINKEGEVMDVYRCDHCRVLFLDYVMFTIHMGCHGFRDPFECNMCGYRSHDRYEFSSHIARGEHRALLK
partner: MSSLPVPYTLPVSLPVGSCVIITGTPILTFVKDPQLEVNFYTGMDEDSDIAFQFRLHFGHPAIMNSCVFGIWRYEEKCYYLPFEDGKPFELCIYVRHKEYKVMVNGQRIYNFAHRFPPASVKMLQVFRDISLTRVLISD
B4: Trichoplein keratin filament-binding protein (Homo sapiens), Q9BT92 (parent)
chain: MALPTLPSYWCSQQRLNQQLARQREQEARLRQQWEQNSRYFRMSDICSSKQAEWSSKTSYQRSMHAYQREKMKEEKRRSLEARREKLRQLMQEEQDLLARELEELRLSMNLQERRIREQHGKLKSAKEEQRKLIAEQLLYEHWKKNNPKLREMELDLHQKHVVNSWEMQKEEKKQQEATAEQENKRYENEYERARREALERMKAEEERRQLEDKLQAEALLQQMEELKLKEVEATKLKKEQENLLKQRWELERLEEERKQMEAFRQKAELGRFLRHQYNAQLSRRTQQIQEELEADRRILQALLEKEDESQRLHLARREQVMADVAWMKQAIEEQLQLERAREAELQMLLREEAKEMWEKREAEWARERSARDRLMSEVLTGRQQQIQEKIEQNRRAQEESLKHREQLIRNLEEVRELARREKEESEKLKSARKQELEAQVAERRLQAWEADQQEEEEEEEARRVEQLSDALLQQEAETMAEQGYRPKPYGHPKIAWN
partner: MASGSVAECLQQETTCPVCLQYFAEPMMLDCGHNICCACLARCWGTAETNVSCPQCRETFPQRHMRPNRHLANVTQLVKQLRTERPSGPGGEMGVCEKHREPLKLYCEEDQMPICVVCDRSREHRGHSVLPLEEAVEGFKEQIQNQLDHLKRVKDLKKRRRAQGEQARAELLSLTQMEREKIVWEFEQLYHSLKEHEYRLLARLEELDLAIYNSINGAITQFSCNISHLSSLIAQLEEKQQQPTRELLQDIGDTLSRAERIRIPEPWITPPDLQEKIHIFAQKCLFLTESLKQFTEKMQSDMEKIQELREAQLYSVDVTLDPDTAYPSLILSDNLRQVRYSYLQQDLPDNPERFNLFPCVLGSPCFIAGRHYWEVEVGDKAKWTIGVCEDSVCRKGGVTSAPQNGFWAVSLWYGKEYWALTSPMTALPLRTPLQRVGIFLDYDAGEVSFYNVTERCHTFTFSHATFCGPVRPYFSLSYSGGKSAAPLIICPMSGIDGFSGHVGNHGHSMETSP
B5: Protein BEX5 (Homo sapiens), Q5H9J7 (parent)
chain: MENVPKENKVVEKAPVQNEAPALGGGEYQEPGGNVKGVWAPPAPGFGEDVPNRLVDNIDMIDGDGDDMERFMEEMRELRRKIRELQLRYSLRILIGDPPHHDHHDEFCLMP
B6: Notch homolog 2 N-terminal-like protein A (Homo sapiens), Q7Z3S9 (parent)
chain: MCVTYHNGTGYCKCPEGFLGEYCQHRDPCEKNRCQNGGTCVAQAMLGKATCRCASGFTGEDCQYSTSHPCFVSRPCLNGGTCHMLSRDTYECTCQVGFTGKECQWTDACLSHPCANGSTCTTVANQFSCKCLTGFTGQKCETDVNECDIPGHCQHGGTCLNLPGSYQCQCLQGFTGQYCDSLYVPCAPSPCVNGGTCRQTGDFTFECNCLPETVRRGTELWERDREVWNGKEHDEN
partner: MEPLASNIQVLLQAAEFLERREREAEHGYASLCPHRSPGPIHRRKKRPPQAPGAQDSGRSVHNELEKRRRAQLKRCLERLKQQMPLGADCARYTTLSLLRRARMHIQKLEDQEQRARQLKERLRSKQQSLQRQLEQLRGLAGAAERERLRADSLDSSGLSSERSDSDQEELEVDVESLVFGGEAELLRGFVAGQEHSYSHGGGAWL

Variants of: B1
Settings: with fate1_human FATE1, Q969F0

effect of a mutation on the interaction	Variant
with no effect	MEVPPPAPRSFLCRALCLFPRVFAAEAVTADSEVLEERQKRLPYVPEPYYPESGWDRLRELFGKDEQQRISKDLANICKTAATAGIIGWVYGGIPAFIHAKQQYIEQSQAEIYHNRFDAVQSAHRAATRGFIRYGWRWGWRTAVFVTIFNTVNTSLNVYRNKDGLSHFVIAGAVTGSLFRINVGLRGLVAGGIIGALLGTPVGGLLMAFQKYSGETVQERKQKDRKALHELKLEEWKGRLQVTEHLPEKIESSLQEDEPENDAKKIEALLNLPRNPSVIDKQDKD [A164G]
with no effect	MEVPPPAPRSFLCRALCLFPRVFAAEAVTADSEVLEERQKRLPYVPEPYYPESGWDRLRELFGKDEQQRISKDLADICKTAATAGIIGWVYGGIPAFIHAKQQYIEQSQAEIYHNRFDAVQSAHRAATRGFIRYGWRWGWRTAVFVTIFNTVNTSLNVYRNKDALSHFVIAGAVTGSLFRINVGLRGLVAGGIIGALLGTPVGGLLMAFQKYSGETVQERKQKDRKALHELKLEEWKGRLQVTEHLPEKIESSLQEDEPENDAKKIEALLNLPRNPSVIDKQDKD [N76D]

Variants of: B2
Settings: with tle5_human TLE5, Q08117

effect of a mutation on the interaction	Variant
with no effect	H212Q

Variants of: B3
Settings: with ppl13_human LGALS14, Q8TCE9

effect of a mutation on the interaction	Variant
with no effect	A24V
with no effect	N119D

Variants of: B4
Settings: with tri27_human TRIM27, P14373

effect of a mutation on the interaction	Variant
with no effect	MALPTLPSYWCSQQRLNQQLARQREQEARLRQQWEQNSRYFRMSDICSSKQAEWSSKTSYQRSMHAYQREKMKEEKRRSLEARREKLRQLMQEEQDLLARELEELRLSMNLQERRIREQHGKLKSAREEQRKLIAEQLLYEHWKKNNPKLREMELDLHQKHVVNSWEMQKEEKKQQEATAEQENKRYENEYERARREALERMKAEEERRQLEDKLQAEALLQQMEELKLKEVEATKLKKEQENLLKQRWELERLEEERKQMEAFRQKAELGRFLRHQYNAQLSRRTQQIQEELEADRRILQALLEKEDESQRLHLARREQVMADVAWMKQAIEEQLQLERAREAELQMLLREEAKEMWEKREAEWARERSARDRLMSEVLTGRQQQIQEKIEQNRRAQEESLKHREQLIRNLEEVRELARREKEESEKLKSARKQELEAQVAERRLQAWEADQQEEEEEEEARRVEQLSDALLQQEAETMAEQGYRPKPYGHPKIAWN [K127R]

Variants of: B5
Settings: with emil1_human EMILIN1, Q9Y6C2
emil1_human EMILIN1, Q9Y6C2, sequence (Q9Y6C2 whole entry): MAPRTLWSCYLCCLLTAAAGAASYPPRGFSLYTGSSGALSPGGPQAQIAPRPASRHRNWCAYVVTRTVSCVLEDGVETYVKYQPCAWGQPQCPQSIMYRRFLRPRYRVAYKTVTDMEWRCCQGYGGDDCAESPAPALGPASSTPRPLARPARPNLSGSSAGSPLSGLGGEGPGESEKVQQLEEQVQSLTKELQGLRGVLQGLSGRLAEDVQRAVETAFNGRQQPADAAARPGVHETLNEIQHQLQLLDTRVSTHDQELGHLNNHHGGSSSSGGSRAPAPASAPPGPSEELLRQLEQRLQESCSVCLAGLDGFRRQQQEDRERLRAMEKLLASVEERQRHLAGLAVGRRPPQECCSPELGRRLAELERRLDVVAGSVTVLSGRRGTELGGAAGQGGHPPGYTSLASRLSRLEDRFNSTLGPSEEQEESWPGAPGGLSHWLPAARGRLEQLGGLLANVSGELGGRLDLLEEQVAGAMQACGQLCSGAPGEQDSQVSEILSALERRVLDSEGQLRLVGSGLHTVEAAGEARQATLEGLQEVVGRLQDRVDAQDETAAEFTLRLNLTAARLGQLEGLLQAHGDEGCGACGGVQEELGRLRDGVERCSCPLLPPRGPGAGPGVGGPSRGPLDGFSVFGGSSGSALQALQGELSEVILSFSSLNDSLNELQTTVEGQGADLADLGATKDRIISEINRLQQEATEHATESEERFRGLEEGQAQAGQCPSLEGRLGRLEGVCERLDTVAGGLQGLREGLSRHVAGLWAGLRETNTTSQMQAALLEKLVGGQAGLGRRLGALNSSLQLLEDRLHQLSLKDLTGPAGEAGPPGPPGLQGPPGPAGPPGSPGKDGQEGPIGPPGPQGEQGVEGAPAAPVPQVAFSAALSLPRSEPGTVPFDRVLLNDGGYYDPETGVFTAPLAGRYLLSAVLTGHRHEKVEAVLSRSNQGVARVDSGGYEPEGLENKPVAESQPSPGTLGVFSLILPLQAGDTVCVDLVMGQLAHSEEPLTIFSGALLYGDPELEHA

effect of a mutation on the interaction	Variant
disrupting interaction strength	E74D

Variants of: B6
Settings: with mad3_human MXD3, Q9BW11

effect of a mutation on the interaction	Variant
with no effect	A115T
with no effect	R74Q
